Laboratory results reported in PMC8187860, “Substitution of a Surface-Exposed Residue Involved in an Allosteric Network Enhances Tryptophan Synthase Function in Cells” (Frontiers in Molecular Biosciences, 2021).
Positions count from the first letter of the chain named. In names and notes the source's numbering stands.

Legend:
[1] = target: T1, Escherichia coli tryptophan synthase beta subunit (βTS) (E. coli, UniProt P0A879 1-397); assay: ITC; αTS subunit (WT or A198W) binding to the βTS subunit; which protein was titrated, buffer and temperature are not told in the main text (Supplementary Figure 5); details: both partners purified
T1 construct: tryptophan synthase beta subunit (βTS), E. coli; No removal of the hexahistidine tag is mentioned; also called beta subunit of TS; source: E. coli BL21 (DE3*), purified (Ni-NTA, S200 size exclusion)
T1 sequence (looked up): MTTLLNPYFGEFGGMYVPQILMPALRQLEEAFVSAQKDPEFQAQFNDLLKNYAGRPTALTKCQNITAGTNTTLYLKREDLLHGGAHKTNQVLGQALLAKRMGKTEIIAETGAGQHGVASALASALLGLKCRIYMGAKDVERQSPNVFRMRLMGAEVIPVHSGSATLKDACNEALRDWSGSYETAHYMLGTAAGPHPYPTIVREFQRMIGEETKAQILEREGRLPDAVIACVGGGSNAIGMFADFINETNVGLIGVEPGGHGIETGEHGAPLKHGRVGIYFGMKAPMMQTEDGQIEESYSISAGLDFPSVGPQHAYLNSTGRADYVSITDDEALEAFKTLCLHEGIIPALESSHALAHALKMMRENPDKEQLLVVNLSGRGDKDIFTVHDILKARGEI

[2] = target: T1, Escherichia coli tryptophan synthase …; assay: cell-based or functional assay
[3] = target: T2, Escherichia coli tryptophan synthase alpha subunit (αTS), A198W variant (E. coli, UniProt P0A877 1-268, A198W); assay: ITC
T2 sequence: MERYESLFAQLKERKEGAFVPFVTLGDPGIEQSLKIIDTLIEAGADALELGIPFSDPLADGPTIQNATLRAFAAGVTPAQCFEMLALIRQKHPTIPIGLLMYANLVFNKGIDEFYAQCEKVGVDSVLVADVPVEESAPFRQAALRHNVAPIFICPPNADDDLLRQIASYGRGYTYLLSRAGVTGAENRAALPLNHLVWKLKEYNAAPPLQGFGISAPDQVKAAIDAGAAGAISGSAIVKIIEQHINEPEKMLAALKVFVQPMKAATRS

B1: Escherichia coli tryptophan synthase alpha subunit (αTS), wild type (enzyme, E. coli, UniProt P0A877 1-268, looked up)
chain: T2 sequence with W198A
notes: tryptophan synthase alpha subunit (αTS, product of trpA), E. coli; Axe et al., 2014) for the construct and its purification; also called WT αTS; WT; source: E. coli BL21 (DE3*), purified as previously (Axe and Boehr, 2013; Axe et al., 2014; O'Rourke et al., 2019
Q: How did the Kd [1] turn out when B1 was run?
A: Its Kd is about 25 nM.

B2: Escherichia coli tryptophan synthase alpha subunit (αTS), A198W variant (enzyme, E. coli, UniProt P0A877 1-268, looked up)
chain: T2 sequence
notes: tryptophan synthase alpha subunit (αTS, product of trpA), E. coli, with the substitution A198W; Made by QuikChange site-directed mutagenesis of the wild-type αTS plasmid; also called A198W αTS; source: E. coli BL21 (DE3*), purified as previously (Axe and Boehr, 2013; Axe et al., 2014; O'Rourke et al., 2019)
Q: What does the source list for B2?
A: Kd [1]: ~25 nM; kcat/KM of the full TS complex reaction (production of tryptophan from IGP, 290 nm; 50 µM α2β2 TS complex) [2]: 9900 M⁻¹ s⁻¹; kcat/KM of the βTS assay in the presence of αTS (production of tryptophan from indole, 290 nm; 0.5 µM α2β2 TS complex) [2]: 190000 M⁻¹ s⁻¹

B3: Escherichia coli tryptophan synthase beta subunit (βTS) (enzyme)
chain: T1 sequence (looked up)
Q: With B3 as the binder, how does the Kd [3] read?
A: The Kd was 28 nM.
